B1: GpH7-B3 variant K334_15Y/GpL16-k0 (antibody, human IgG1, kappa)
heavy: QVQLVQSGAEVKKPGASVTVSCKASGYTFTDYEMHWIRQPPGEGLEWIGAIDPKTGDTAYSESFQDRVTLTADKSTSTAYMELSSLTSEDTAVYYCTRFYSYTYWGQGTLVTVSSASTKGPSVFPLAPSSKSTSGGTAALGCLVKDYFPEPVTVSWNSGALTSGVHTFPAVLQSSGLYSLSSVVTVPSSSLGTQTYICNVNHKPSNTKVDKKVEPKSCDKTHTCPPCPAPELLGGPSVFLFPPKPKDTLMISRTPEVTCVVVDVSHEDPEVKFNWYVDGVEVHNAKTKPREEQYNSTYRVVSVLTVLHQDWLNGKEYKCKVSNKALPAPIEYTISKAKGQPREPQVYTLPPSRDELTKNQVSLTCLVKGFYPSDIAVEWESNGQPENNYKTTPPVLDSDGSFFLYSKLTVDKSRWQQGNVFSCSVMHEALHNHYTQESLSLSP
light: DIVMTQSPLSLPVTPGEPASISCQASESLVHSNRNTYLHWYLQKPGQSPQLLIYKVSNRFSGVPDRFSGSGSGTDFTLKISRVEAEDVGVYYCSQNTHVPPTFGQGTKVEIERTVAAPSVFIFPPSDEQLKSGTASVVCLLNNFYPREAKVQWKVDNALQSGNSQESVTEQDSKDSTYSLSSTLTLSKADYEKHKVYACEVTHQGLSSPVTKSFNRGEC
notes: homodimerized IgG1, mutation in both H chains; also called Ho Ab
B2: GpH7-B3 variant K334_19Q/GpL16-k0 (antibody, human IgG1, kappa)
heavy: not shown
light: B1 light
notes: as for B1
B3: GpH7-B3 variant K334_18N/GpL16-k0 (antibody, human IgG1, kappa)
heavy: not shown
light: B1 light
notes: as for B1
B4: GpH7-B3 variant T335_07I/GpL16-k0 (antibody, human IgG1, kappa)
heavy: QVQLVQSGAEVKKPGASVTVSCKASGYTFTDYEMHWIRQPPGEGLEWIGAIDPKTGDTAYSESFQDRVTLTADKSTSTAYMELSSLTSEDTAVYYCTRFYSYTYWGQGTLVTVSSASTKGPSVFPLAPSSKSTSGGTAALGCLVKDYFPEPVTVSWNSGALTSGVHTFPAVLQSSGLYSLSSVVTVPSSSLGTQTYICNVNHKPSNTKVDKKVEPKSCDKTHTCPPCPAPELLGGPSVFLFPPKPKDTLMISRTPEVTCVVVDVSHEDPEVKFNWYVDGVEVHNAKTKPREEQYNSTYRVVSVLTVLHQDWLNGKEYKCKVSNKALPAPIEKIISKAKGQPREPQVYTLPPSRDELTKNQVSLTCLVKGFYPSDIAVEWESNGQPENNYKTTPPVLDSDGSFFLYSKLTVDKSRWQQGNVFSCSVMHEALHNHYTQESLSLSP
light: B1 light
notes: as for B1
B5: GpH7-B3 variant S267_09D/GpL16-k0 (antibody, human IgG1, kappa)
heavy: not shown
light: B1 light
notes: as for B1
B6: GpH7-B3 variant Q295_14T/GpL16-k0 (antibody, human IgG1, kappa)
heavy: not shown
light: B1 light
notes: as for B1
B7: GpH7-B3 variant S267_02A/GpL16-k0 (antibody, human IgG1, kappa)
heavy: not shown
light: B1 light
notes: as for B1
B8: GpH7-B3 variant Q295_10E/GpL16-k0 (antibody, human IgG1, kappa)
heavy: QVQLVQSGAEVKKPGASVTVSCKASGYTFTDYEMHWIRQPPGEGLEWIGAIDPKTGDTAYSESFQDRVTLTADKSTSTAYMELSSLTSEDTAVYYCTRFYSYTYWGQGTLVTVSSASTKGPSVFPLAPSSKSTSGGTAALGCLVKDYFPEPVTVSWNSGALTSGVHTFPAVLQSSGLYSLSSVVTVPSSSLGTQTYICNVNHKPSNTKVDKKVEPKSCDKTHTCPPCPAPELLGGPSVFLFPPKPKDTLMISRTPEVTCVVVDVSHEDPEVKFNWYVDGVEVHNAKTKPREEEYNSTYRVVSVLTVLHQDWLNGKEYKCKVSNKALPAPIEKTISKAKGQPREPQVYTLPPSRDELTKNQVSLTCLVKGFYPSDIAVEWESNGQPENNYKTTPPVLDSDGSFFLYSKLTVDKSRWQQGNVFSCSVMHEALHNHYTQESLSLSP
light: B1 light
notes: as for B1
B9: GpH7-B3 variant T335_10E/GpL16-k0 (antibody, human IgG1, kappa)
heavy: not shown
light: B1 light
notes: as for B1
B10: GpH7-B3 variant S337_10E/GpL16-k0 (antibody, human IgG1, kappa)
heavy: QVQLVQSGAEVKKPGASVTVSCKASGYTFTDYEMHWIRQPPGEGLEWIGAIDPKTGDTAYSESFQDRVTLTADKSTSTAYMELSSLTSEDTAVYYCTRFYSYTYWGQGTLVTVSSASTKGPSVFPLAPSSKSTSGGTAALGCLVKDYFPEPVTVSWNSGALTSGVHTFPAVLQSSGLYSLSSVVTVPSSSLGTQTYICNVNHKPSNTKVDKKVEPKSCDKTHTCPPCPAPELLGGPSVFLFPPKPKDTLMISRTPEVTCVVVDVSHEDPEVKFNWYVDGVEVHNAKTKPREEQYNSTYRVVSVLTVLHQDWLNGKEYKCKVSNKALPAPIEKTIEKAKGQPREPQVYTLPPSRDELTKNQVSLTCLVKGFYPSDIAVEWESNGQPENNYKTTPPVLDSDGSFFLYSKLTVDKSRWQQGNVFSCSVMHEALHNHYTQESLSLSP
light: B1 light
notes: as for B1
B11: GpH7-B3 variant Q295_02A/GpL16-k0 (antibody, human IgG1, kappa)
heavy: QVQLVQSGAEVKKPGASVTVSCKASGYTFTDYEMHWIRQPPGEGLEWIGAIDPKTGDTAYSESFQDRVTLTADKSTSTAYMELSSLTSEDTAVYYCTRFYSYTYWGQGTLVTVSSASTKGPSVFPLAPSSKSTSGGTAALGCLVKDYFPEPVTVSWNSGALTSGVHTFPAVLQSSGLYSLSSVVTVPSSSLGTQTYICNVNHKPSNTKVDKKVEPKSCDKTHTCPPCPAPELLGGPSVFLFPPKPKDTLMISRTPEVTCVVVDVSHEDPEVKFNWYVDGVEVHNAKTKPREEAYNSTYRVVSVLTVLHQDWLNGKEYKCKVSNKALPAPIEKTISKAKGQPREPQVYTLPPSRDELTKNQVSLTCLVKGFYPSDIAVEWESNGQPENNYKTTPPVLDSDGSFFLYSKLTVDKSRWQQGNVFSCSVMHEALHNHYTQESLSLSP
light: B1 light
notes: as for B1
B12: GpH7-B3 variant S298_14T/GpL16-k0 (antibody, human IgG1, kappa)
heavy: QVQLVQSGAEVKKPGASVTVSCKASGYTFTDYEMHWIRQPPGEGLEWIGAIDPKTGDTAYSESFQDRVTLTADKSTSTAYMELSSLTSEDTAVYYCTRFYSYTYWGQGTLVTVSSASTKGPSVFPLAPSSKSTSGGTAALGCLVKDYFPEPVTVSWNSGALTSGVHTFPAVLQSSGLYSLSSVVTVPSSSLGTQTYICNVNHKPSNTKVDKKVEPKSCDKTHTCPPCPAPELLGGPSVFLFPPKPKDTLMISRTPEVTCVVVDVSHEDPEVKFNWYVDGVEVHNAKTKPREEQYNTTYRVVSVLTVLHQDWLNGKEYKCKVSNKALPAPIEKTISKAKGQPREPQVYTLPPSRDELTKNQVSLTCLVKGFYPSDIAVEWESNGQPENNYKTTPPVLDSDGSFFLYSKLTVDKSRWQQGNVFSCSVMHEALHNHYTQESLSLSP
light: B1 light
notes: as for B1
B13: GpH7-B3 variant S239_09D/GpL16-k0 (antibody, human IgG1, kappa)
heavy: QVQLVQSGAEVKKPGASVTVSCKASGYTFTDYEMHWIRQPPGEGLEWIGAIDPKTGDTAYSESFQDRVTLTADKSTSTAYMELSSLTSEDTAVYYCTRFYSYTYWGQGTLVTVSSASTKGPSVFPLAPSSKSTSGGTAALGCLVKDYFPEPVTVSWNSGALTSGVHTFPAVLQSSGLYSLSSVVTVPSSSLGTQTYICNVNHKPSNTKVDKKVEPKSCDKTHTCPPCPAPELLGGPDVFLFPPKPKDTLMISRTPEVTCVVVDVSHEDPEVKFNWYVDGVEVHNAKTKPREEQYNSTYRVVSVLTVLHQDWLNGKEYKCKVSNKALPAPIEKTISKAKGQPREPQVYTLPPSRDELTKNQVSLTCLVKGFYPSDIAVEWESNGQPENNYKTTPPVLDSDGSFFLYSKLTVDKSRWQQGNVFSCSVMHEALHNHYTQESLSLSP
light: B1 light
notes: as for B1
B14: GpH7-B3 variant S337_09D/GpL16-k0 (antibody, human IgG1, kappa)
heavy: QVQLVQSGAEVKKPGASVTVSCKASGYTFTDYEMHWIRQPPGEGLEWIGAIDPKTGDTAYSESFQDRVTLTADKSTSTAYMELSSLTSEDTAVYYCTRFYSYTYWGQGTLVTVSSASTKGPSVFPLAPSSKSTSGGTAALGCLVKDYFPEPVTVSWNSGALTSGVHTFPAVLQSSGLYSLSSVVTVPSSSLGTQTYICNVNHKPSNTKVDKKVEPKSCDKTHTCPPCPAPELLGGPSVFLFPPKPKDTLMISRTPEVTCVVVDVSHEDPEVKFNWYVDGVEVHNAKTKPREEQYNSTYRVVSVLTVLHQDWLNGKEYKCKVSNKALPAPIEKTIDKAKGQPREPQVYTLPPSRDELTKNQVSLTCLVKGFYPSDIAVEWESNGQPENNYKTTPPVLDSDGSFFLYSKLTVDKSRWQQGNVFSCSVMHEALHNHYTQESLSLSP
light: B1 light
notes: as for B1
B15: GpH7-B3 variant S337_18N/GpL16-k0 (antibody, human IgG1, kappa)
heavy: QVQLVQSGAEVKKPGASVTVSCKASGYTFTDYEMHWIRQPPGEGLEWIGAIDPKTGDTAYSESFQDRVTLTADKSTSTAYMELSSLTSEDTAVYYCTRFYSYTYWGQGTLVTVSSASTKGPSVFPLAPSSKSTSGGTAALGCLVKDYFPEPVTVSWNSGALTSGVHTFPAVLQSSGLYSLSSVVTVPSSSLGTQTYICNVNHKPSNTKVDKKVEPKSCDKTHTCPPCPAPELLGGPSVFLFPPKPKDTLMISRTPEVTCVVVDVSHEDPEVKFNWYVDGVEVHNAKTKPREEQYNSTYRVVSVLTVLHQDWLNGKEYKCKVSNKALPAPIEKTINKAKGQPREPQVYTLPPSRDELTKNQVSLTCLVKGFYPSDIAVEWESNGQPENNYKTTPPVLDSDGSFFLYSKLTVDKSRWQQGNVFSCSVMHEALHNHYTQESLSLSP
light: B1 light
notes: as for B1
B16: GpH7-B3 variant K334_16H/GpL16-k0 (antibody, human IgG1, kappa)
heavy: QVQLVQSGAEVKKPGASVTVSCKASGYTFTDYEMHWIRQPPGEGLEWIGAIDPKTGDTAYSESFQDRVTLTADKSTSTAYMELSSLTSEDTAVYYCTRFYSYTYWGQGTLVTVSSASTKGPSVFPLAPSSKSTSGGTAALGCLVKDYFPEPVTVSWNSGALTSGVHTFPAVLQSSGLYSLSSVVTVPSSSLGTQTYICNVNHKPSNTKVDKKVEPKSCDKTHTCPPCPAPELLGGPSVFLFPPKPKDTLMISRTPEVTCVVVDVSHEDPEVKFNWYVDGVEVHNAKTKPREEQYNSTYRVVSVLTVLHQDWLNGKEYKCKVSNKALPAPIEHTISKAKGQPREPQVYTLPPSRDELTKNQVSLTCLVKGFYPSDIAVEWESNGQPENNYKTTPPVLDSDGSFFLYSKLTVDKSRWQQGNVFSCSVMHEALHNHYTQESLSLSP
light: B1 light
notes: as for B1
B17: GpH7-A5/GpH7-B3 variant K334_01G/GpL16-k0 (antibody, human IgG1, kappa)
heavy 1: not shown
heavy 2: not shown
light: B1 light
notes: heterodimerized IgG1, mutation in one H chain only; also called He Ab
B18: GpH7-A5/GpH7-B3 variant H268_13S/GpL16-k0 (antibody, human IgG1, kappa)
heavy 1: not shown
heavy 2: not shown
light: B1 light
notes: as for B17
B19: GpH7-A5/GpH7-B3 variant A330_20W/GpL16-k0 (antibody, human IgG1, kappa)
heavy 1: not shown
heavy 2: not shown
light: B1 light
notes: as for B17
B20: GpH7-A5/GpH7-B3 variant I336_14T/GpL16-k0 (antibody, human IgG1, kappa)
heavy 1: not shown
heavy 2: not shown
light: B1 light
notes: as for B17
B21: GpH7-A5/GpH7-B3 variant I332_14T/GpL16-k0 (antibody, human IgG1, kappa)
heavy 1: not shown
heavy 2: not shown
light: B1 light
notes: as for B17
B22: GpH7-A5/GpH7-B3 variant K326_10E/GpL16-k0 (antibody, human IgG1, kappa)
heavy 1: not shown
heavy 2: not shown
light: B1 light
notes: as for B17
B23: GpH7-A5/GpH7-B3 variant I332_01G/GpL16-k0 (antibody, human IgG1, kappa)
heavy 1: not shown
heavy 2: not shown
light: B1 light
notes: as for B17
B24: GpH7-A5/GpH7-B3 variant K334_05P/GpL16-k0 (antibody, human IgG1, kappa)
heavy 1: not shown
heavy 2: not shown
light: B1 light
notes: as for B17
B25: GpH7-A5/GpH7-B3 variant K334_04F/GpL16-k0 (antibody, human IgG1, kappa)
heavy 1: not shown
heavy 2: not shown
light: B1 light
notes: as for B17
B26: GpH7-A5/GpH7-B3 variant I336_13S/GpL16-k0 (antibody, human IgG1, kappa)
heavy 1: not shown
heavy 2: not shown
light: B1 light
notes: as for B17
B27: GpH7-A5/GpH7-B3 variant I332_19Q/GpL16-k0 (antibody, human IgG1, kappa)
heavy 1: not shown
heavy 2: not shown
light: B1 light
notes: as for B17
B28: GpH7-A5/GpH7-B3 variant I336_18N/GpL16-k0 (antibody, human IgG1, kappa)
heavy 1: not shown
heavy 2: not shown
light: B1 light
notes: as for B17
B29: GpH7-A5/GpH7-B3 variant K326_06M/GpL16-k0 (antibody, human IgG1, kappa)
heavy 1: not shown
heavy 2: not shown
light: B1 light
notes: as for B17
B30: GpH7-A5/GpH7-B3 variant I336_10E/GpL16-k0 (antibody, human IgG1, kappa)
heavy 1: not shown
heavy 2: not shown
light: B1 light
notes: as for B17
B31: GpH7-A5/GpH7-B3 variant I332_10E/GpL16-k0 (antibody, human IgG1, kappa)
heavy 1: not shown
heavy 2: not shown
light: B1 light
notes: as for B17
B32: GpH7-A5/GpH7-B3 variant A330_04F/GpL16-k0 (antibody, human IgG1, kappa)
heavy 1: not shown
heavy 2: not shown
light: B1 light
notes: as for B17
B33: GpH7-A5/GpH7-B3 variant E333_16H/GpL16-k0 (antibody, human IgG1, kappa)
heavy 1: not shown
heavy 2: not shown
light: B1 light
notes: as for B17
B34: GpH7-A5/GpH7-B3 variant K334_02A/GpL16-k0 (antibody, human IgG1, kappa)
heavy 1: not shown
heavy 2: not shown
light: B1 light
notes: as for B17
B35: GpH7-A5/GpH7-B3 variant I332_15Y/GpL16-k0 (antibody, human IgG1, kappa)
heavy 1: not shown
heavy 2: not shown
light: B1 light
notes: as for B17
B36: GpH7-A5/GpH7-B3 variant K326_03V/GpL16-k0 (antibody, human IgG1, kappa)
heavy 1: not shown
heavy 2: not shown
light: B1 light
notes: as for B17
B37: GpH7-A5/GpH7-B3 variant I332_09D/GpL16-k0 (antibody, human IgG1, kappa)
heavy 1: not shown
heavy 2: not shown
light: B1 light
notes: as for B17
B38: GpH7-A5/GpH7-B3 variant K326_19Q/GpL16-k0 (antibody, human IgG1, kappa)
heavy 1: not shown
heavy 2: not shown
light: B1 light
notes: as for B17
B39: GpH7-A5/GpH7-B3 variant H268_09D/GpL16-k0 (antibody, human IgG1, kappa)
heavy 1: not shown
heavy 2: not shown
light: B1 light
notes: as for B17
B40: GpH7-A5/GpH7-B3 variant I336_09D/GpL16-k0 (antibody, human IgG1, kappa)
heavy 1: not shown
heavy 2: not shown
light: B1 light
notes: as for B17
B41: GpH7-A5/GpH7-B3 variant K334_03V/GpL16-k0 (antibody, human IgG1, kappa)
heavy 1: not shown
heavy 2: not shown
light: B1 light
notes: as for B17
B42: GpH7-A5/GpH7-B3 variant K326_09D/GpL16-k0 (antibody, human IgG1, kappa)
heavy 1: not shown
heavy 2: not shown
light: B1 light
notes: as for B17
B43: GpH7-A5/GpH7-B3 variant K326_14T/GpL16-k0 (antibody, human IgG1, kappa)
heavy 1: not shown
heavy 2: not shown
light: B1 light
notes: as for B17
B44: GpH7-A5/GpH7-B3 variant K326_04F/GpL16-k0 (antibody, human IgG1, kappa)
heavy 1: not shown
heavy 2: not shown
light: B1 light
notes: as for B17
B45: GpH7-A5/GpH7-B3 variant K326_07I/GpL16-k0 (antibody, human IgG1, kappa)
heavy 1: not shown
heavy 2: not shown
light: B1 light
notes: as for B17
B46: GpH7-A5/GpH7-B3 variant I336_02A/GpL16-k0 (antibody, human IgG1, kappa)
heavy 1: not shown
heavy 2: not shown
light: B1 light
notes: as for B17
B47: GpH7-A5/GpH7-B3 variant K326_15Y/GpL16-k0 (antibody, human IgG1, kappa)
heavy 1: not shown
heavy 2: not shown
light: B1 light
notes: as for B17
B48: GpH7-A5/GpH7-B3 variant K334_07I/GpL16-k0 (antibody, human IgG1, kappa)
heavy 1: not shown
heavy 2: not shown
light: B1 light
notes: as for B17
B49: GpH7-A5/GpH7-B3 variant I332_13S/GpL16-k0 (antibody, human IgG1, kappa)
heavy 1: not shown
heavy 2: not shown
light: B1 light
notes: as for B17
B50: GpH7-A5/GpH7-B3 variant I336_06M/GpL16-k0 (antibody, human IgG1, kappa)
heavy 1: not shown
heavy 2: not shown
light: B1 light
notes: as for B17
B51: GpH7-A5/GpH7-B3 variant I332_02A/GpL16-k0 (antibody, human IgG1, kappa)
heavy 1: not shown
heavy 2: not shown
light: B1 light
notes: as for B17
B52: GpH7-A5/GpH7-B3 variant A330_08L/GpL16-k0 (antibody, human IgG1, kappa)
heavy 1: not shown
heavy 2: not shown
light: B1 light
notes: as for B17
B53: GpH7-A5/GpH7-B3 variant H268_10E/GpL16-k0 (antibody, human IgG1, kappa)
heavy 1: not shown
heavy 2: not shown
light: B1 light
notes: as for B17
B54: GpH7-A5/GpH7-B3 variant K326_08L/GpL16-k0 (antibody, human IgG1, kappa)
heavy 1: not shown
heavy 2: not shown
light: B1 light
notes: as for B17
B55: GpH7-A5/GpH7-B3 variant I336_03V/GpL16-k0 (antibody, human IgG1, kappa)
heavy 1: not shown
heavy 2: not shown
light: B1 light
notes: as for B17

One assay deals with T1, FcγRIIIa extracellular domain with C-terminal His tag (human, UniProt P08637 17-208).
T1 construct: extracellular domain; also called FcgRIIIa; 3a
T1 sequence (P08637 17-208): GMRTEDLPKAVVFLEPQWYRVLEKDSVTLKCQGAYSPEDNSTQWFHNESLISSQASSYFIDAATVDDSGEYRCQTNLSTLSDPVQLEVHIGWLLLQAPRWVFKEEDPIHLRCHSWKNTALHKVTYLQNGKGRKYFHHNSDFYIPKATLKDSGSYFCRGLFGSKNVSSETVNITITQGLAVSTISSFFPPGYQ
The assay can be described thus: SPR, relative to GpH7-B3/GpL16-k0.
Consider B1, for which the Ho/Con_3a is 181 % of control (=100).

In the case of B2, the Ho/Con_3a is 150 % of control (=100).

Regarding B3, the Ho/Con_3a was 156 % of control (=100).

For B4, the Ho/Con_3a is 107 % of control (=100). For B5, the Ho/Con_3a was 160 % of control (=100).

Consider B6, for which the Ho/Con_3a is 108 % of control (=100). Consider B7, for which the Ho/Con_3a was 145 % of control (=100). On the same count and under the same terms, as for B8, the figure is 111 % of control (=100); as for B9, 102 % of control (=100); as for B10, 100 % of control (=100).

In the case of B11, the Ho/Con_3a is 108 % of control (=100).

As to B12, the Ho/Con_3a was 107 % of control (=100). As to B13, the Ho/Con_3a was 192 % of control (=100).

B14: the Ho/Con_3a was 106 % of control (=100).

For B15, the Ho/Con_3a is 102 % of control (=100). Same read-out and setting: as for B16, the figure is 153 % of control (=100).

The target of another assay is T1, FcγRIIIa extracellular domain with …. The assay can be described thus: SPR, relative to GpH7-A5/GpH7-B3/GpL16-k0.
For the molecule B17, the He/Con_3a was 121 % of control (=100).

For the molecule B18, the He/Con_3a was 122 % of control (=100).

On to B19, for which the He/Con_3a was 104 % of control (=100).

As to B20, the He/Con_3a was 108 % of control (=100). B21: the He/Con_3a is 120 % of control (=100). Regarding B22, the He/Con_3a is 124 % of control (=100). Still for that read-out and setting: as for B23, the figure is 111 % of control (=100).

For B24, the He/Con_3a is 134 % of control (=100). Still for that read-out and setting: as for B25, the figure is 148 % of control (=100); as for B26, 102 % of control (=100). As to B27, the He/Con_3a is 110 % of control (=100). Same read-out and setting: the figure for B28 is 104 % of control (=100); for B29 it is 115 % of control (=100); for B30 it is 119 % of control (=100). For the molecule B31, the He/Con_3a is 233 % of control (=100). Still for that read-out and setting: the figure for B32 is 147 % of control (=100); for B33 it is 103 % of control (=100). Same read-out and setting: the figure for B34 is 147 % of control (=100); for B35 it is 101 % of control (=100). The same measure, in the same setting: as for B36, the figure is 122 % of control (=100); as for B37, 207 % of control (=100); as for B38, 106 % of control (=100). As for B39, the He/Con_3a is 197 % of control (=100). Still for that read-out and setting: as for B40, the figure is 106 % of control (=100). For the molecule B41, the He/Con_3a was 150 % of control (=100). As for B42, the He/Con_3a is 134 % of control (=100). Take B43: the He/Con_3a is 126 % of control (=100). Same read-out and setting: as for B44, the figure is 103 % of control (=100); as for B45, 139 % of control (=100); as for B46, 111 % of control (=100). The same measure, in the same setting: the figure for B47 is 112 % of control (=100); for B48 it is 151 % of control (=100). Same read-out and setting: the figure for B49 is 104 % of control (=100). As to B50, the He/Con_3a is 109 % of control (=100).

Regarding B51, the He/Con_3a is 112 % of control (=100). Still for that read-out and setting: as for B52, the figure is 124 % of control (=100). B53: the He/Con_3a is 186 % of control (=100). On the same count and under the same terms, the figure for B54 is 114 % of control (=100); for B55 it is 112 % of control (=100).

Values taken from patent publication US20180155451A1 (published 2018).
